From article PMC4895024 (2016)

Assays:
[1] = molecular target: T1, ProAgio (D1-CD2 variant 3) ( (human and rat D1-CD2 are …, UniProt P06729 25-206)); experiment: SPR
[2] = molecular target: T1, ProAgio (D1-CD2 variant 3); experiment: ELISA; without polyLys

Kd [1]: 2 nM
Kd [2]: 35 nM
B1: recombinant integrin αvβ3 (commercial) (receptor)
chain 1: FNLDVDSPAEYSGPEGSYFGFAVDFFVPSASSRMFLLVGAPKANTTQPGIVEGGQVLKCDWSSTRRCQPIEFDATGNRDYAKDDPLEFKSHQWFGASVRSKQDKILACAPLYHWRTEMKQEREPVGTCFLQDGTKTVEYAPCRSQDIDADGQGFCQGGFSIDFTKADRVLLGGPGSFYWQGQLISDQVAEIVSKYDPNVYSIKYNNQLATRTAQAIFDDSYLGYSVAVGDFNGDGIDDFVSGVPRAARTLGMVYIYDGKNMSSLYNFTGEQMAAYFGFSVAATDINGDDYADVFIGAPLFMDRGSDGKLQEVGQVSVSLQRASGDFQTTKLNGFEVFARFGSAIAPLGDLDQDGFNDIAIAAPYGGEDKKGIVYIFNGRSTGLNAVPSQILEGQWAARSMPPSFGYSMKGATDIDKNGYPDLIVGAFGVDRAILYRARPVITVNAGLEVYPSILNQDNKTCSLPGTALKVSCFNVRFCLKADGKGVLPRKLNFQVELLLDKLKQKGAIRRALFLYSRSPSHSKNMTISRGGLMQCEELIAYLRDESEFRDKLTPITIFMEYRLDYRTAADTTGLQPILNQFTPANISRQAHILLDCGEDNVCKPKLEVSVDSDQKKIYIGDDNPLTLIVKAQNQGEGAYEAELIVSIPLQADFIGVVRNNEALARLSCAFKTENQTRQVVCDLGNPMKAGTQLLAGLRFSVHQQSEMDTSVKFDLQIQSSNLFDKVSPVVSHKVDLAVLAAVEIRGVSSPDHVFLPIPNWEHKENPETEEDVGPVVQHIYELRNNGPSSFSKAMLHLQWPYKYNNNTLLYILHYDIDGPMNCTSDMEINPLRIKISSLQTTEKNDTVAGQGERDHLITKRDLALSEGDIHTLGCGVAQCLKIVCQVGRLDRGKSAILYVKSLLWTETFMNKENQNHSYSLKSSASFNVIEFPYKNLPIEDITNSTLVTTNVTWGIQPAPMPV
chain 2: GPNICTTRGVSSCQQCLAVSPMCAWCSDEALPLGSPRCDLKENLLKDNCAPESIEFPVSEARVLEDRPLSDKGSGDSSQVTQVSPQRIALRLRPDDSKNFSIQVRQVEDYPVDIYYLMDLSYSMKDDLWSIQNLGTKLATQMRKLTSNLRIGFGAFVDKPVSPYMYISPPEALENPCYDMKTTCLPMFGYKHVLTLTDQVTRFNEEVKKQSVSRNRDAPEGGFDAIMQATVCDEKIGWRNDASHLLVFTTDAKTHIALDGRLAGIVQPNDGQCHVGSDNHYSASTTMDYPSLGLMTEKLSQKNINLIFAVTENVVNLYQNYSELIPGTTVGVLSMDSSNVLQLIVDAYGKIRSKVELEVRDLPEELSLSFNATCLNNEVIPGLKSCMGLKIGDTVSFSIEAKVRGCPQEKEKSFTIKPVGFKDSLIVQVTFDCDCACQAQAEPNSHRCNNGNGTFECGVCRCGPGWLGSQCECSEEDYRPSQQDECSPREGQPVCSQRGECLCGQCVCHSSDFGKITGKYCECDDFSCVRYKGEMCSGHGQCSCGDCLCDSDWTGYYCNCTTRTDTCMSSNGLLCSGRGKCECGSCVCIQPGSYGDTCEKCPTCPDACTFKKECVECKKFDRGALHDENTCNRYCRDEIESVKELKDTGKDAVNCTYKNEDDCVVRFQYYEDSSGKSILYVVEEPECPKGPD
